The text below walks through data of PMC2275076 (Nucleic Acids Research, 2007).

The series concerns the molecule itself. Briefly: SEC. A general note: In gel filtration, larger molecules generally elute earlier.

B1: Methanococcus maripaludis O-phosphoseryl-tRNA:selenocysteinyl-tRNA synthase (SepSecS) (enzyme, UniProt Q6LZM9 1-436, looked up)
chain: MLDFNIEGLIPKNMEKRGELVLNEYLKEIEDVFNHRKIPENGIDDEKIKLFLKFLSMMDTDKDPKSVRIGEREARTYSKIHEELSSGFCHGIGRSGNLVDPQPKASGASIMYALTNKILESFFKQLGLNVHAIATPISTGMSISLCLSAARKKYGSNVVIYPYASHKSPIKAVSFVGMNMRLVETVLDGDRVYVPVEDIENAIKKEIELGNRPCVLSTLTFFPPRNSDDIVEIAKICENYDIPHIINGAYAIQNNYYLEKLKKAFKYRVDAVVSSSDKNLLTPIGGGLVYSTDAEFIKEISLSYPGRASATPVVNTLVSLLSMGSKNYLELVKNQKNSKKLLDELLNDLSKKTGGKFLDVESPIASCISVNSDPVEIAAKLYNLRVTGPRGIKKTDHFGNCYLGTYTHDYIVMNAAIGVRTEDIVNSVSKLEKILL
modifications: selenomethionine-labeled; PLP covalently bound via a Schiff base to Lys278
On to B1, for which the “stoichiometry N” value was determined as 4.

As usually defined, the stoichiometry N is a count of units in the complex or per binding partner.
